Patent publication US20090232803A1 (Novartis, published 2009)

T1: Rat IL-1β (rat, UniProt Q63264 117-268)
T1 sequence (looked up): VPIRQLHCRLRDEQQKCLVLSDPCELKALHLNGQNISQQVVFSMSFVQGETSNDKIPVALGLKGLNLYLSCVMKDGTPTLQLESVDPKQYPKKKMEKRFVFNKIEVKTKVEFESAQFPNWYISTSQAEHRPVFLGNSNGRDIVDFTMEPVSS

T2: Mouse IL-1β (mouse, UniProt P10749 118-269)
T2 construct: also called murine IL-1β
T2 sequence (looked up): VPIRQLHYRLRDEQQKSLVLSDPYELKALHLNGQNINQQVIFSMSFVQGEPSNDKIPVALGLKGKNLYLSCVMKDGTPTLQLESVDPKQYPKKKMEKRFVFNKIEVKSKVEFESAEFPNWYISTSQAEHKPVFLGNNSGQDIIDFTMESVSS

T3: Cynomolgus IL-1β (cynomolgus monkey, UniProt P79182 117-268)
T3 construct: also called cynomolgus monkey IL-1β
T3 sequence (looked up): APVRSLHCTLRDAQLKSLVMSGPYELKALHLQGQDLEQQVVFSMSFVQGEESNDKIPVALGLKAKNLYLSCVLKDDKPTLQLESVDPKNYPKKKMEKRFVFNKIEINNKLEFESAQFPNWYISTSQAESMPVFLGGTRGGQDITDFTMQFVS

T4: Human IL-1α (human, UniProt P01583 113-271)
T4 sequence (looked up): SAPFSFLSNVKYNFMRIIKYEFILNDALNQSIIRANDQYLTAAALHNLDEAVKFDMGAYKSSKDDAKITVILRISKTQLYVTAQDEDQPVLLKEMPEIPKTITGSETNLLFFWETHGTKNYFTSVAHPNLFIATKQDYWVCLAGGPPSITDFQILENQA


Experiments:
recombinant human IL-1β [1] = target: T5, recombinant human IL-1β (human, UniProt P01584 117-269); test: cell-based or functional assay
Rat IL-1β [2] = target: T1, Rat IL-1β; test: Biacore; AAL160 immobilised, cytokine at 8 nM (or 20 nM in the case of IL-1β)
Mouse IL-1β [3] = target: T2, Mouse IL-1β; test: as above
Human IL-1Ra [4] = target: T6, Human IL-1Ra (human, UniProt P18510 26-177); test: as above
T6 construct: also called IL-1 receptor antagonist

Cynomolgus IL-1β = target: T3, Cynomolgus IL-1β; test: as above
recombinant human IL-1β [5] = target: T5, recombinant human IL-1β; test: as above
Human IL-1α [6] = target: T4, Human IL-1α; test: as above
recombinant human IL-1β [7] = target: T5, recombinant human IL-1β; test: BIAcore SPR; AAL160 immobilised, recombinant IL-1β 0.5 to 12 nM, 1:1 model, n = 15
Procedure: Data analysis is performed using the BIAevaluation software.

Rat IL-1β [8] = target: T1, Rat IL-1β; test: Biacore, AAL160 immobilised
Mouse IL-1β [9] = target: T2, Mouse IL-1β; test: Biacore, AAL160 immobilised
Human IL-1Ra [10] = target: T6, Human IL-1Ra; test: Biacore, AAL160 immobilised
Human IL-1α [11] = target: T4, Human IL-1α; test: Biacore, AAL160 immobilised
recombinant human IL-1β [12] = target: T5, recombinant human IL-1β; test: Biacore competition: AAL160 immobilised on the chip, recombinant human IL-1β (8 nM) injected with increasing concentrations of soluble receptor type I; readout is % binding of IL-1β to AAL160 (competitor: AAL160)

T6 sequence (P18510 26-177 limits assumed): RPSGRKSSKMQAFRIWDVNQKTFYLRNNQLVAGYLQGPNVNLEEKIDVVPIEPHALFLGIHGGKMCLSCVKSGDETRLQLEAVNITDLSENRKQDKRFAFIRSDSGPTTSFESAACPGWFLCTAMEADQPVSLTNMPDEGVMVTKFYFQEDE

Row | IC50, IL-6 secretion, Recombinant (primary human dermal fibroblasts stimulated with recombinant IL-1β) (recombinant human IL-1β [1]) [nM] | IC50, IL-6 secretion, cond. Medium (primary human dermal fibroblasts stimulated with conditioned medium of LPS-stimulated human PBMCs, natural IL-1β) (recombinant human IL-1β [1]) [nM] | IC50, PGE2 production, cond. Medium (primary human dermal fibroblasts stimulated with conditioned medium of LPS-stimulated human PBMCs, natural IL-1β) (recombinant human IL-1β [1]) [nM] | Percent of total binding (Rat IL-1β [2]) [%] | Percent of total binding (Mouse IL-1β [3]) [%] | Percent of total binding (Human IL-1Ra [4]) [%] | Percent of total binding (Cynomolgus IL-1β) [%] | Percent of total binding (recombinant human IL-1β [5]) [%] | Percent of total binding (Human IL-1α [6]) [%] | Kd (recombinant human IL-1β [7]) [nM] | koff (recombinant human IL-1β [7]) [s⁻¹] | kon (recombinant human IL-1β [7]) [M⁻¹ s⁻¹] | IC50 (recombinant human IL-1β [12]) [nM] | Binder | binding result (Rat IL-1β [8]) | binding result (Mouse IL-1β [9]) | binding result (Human IL-1Ra [10]) | binding result (Human IL-1α [11])
1 | 0.34 | 0.6 | 0.79 | 3 | 2.8 | 1.2 | 96.4 | 100 | 0.7 | 0.397 | 0.000153 | 391000 |  | AAL160 antibody (human IgG1/κ monoclonal antibody to human IL-1β) (antibody, V domains shown, It was purified from hybridoma supernatant on protein A; also called NVP AAL 160 NX-1; hybridoma # 476) VH: EVQLVQSGAEVKKPGESLKISCKGSGYSFTSYWIGWVRQMPGKGLEWMGIIYPSDSDTRYSPSFQGQVTISADKSISTAYLQWSSLKASDTAMYYCARYTNWDAFDIWGQGTMVTVSS VL: EIVLTQSPATLSLSPGERATLSCRASQSVSSYLAWYQQKPGQAPRLLIYDASNRATGIPARFSGSGSGTDFTLTISSLEPEDFAVYYCQQRSNWMFPFGQGTKLEIK | no binding (tested: 8 nM (or 20 nM in the case of IL-1β)) | no binding (tested: 8 nM (or 20 nM in the case of IL-1β)) | no binding (tested: 8 nM (or 20 nM in the case of IL-1β)) | no binding (tested: 8 nM (or 20 nM in the case of IL-1β))
2 |  |  |  |  |  |  |  |  |  |  |  |  | 3.4 | recombinant human soluble IL-1 receptor type I (receptor, UniProt P14778 18-332, looked up, soluble; also called soluble IL-1 type I receptor; receptor I) LEADKCKEREEKIILVSSANEIDVRPCPLNPNEHKGTITWYKDDSKTPVSTEQASRIHQHKEKLWFVPAKVEDSGHYYCVVRNSSYCLRIKISAKFVENEPNLCYNAQAIFKQKLPVAGDGGLVCPYMEFFKNENNELPKLQWYKDCKPLLLDNIHFSGVKDRLIVMNVAEKHRGNYTCHASYTYLGKQYPITRVIEFITLEENKPTRPVIVSPANETMEVDLGSQIQLICNVTGQLSDIAYWKWNGSVIDEDDPVLGEDYYSVENPANKRRSTLITVLNISEIESRFYKHPFTCFAKNTHGIDAAYIQLIYPVT |  |  |  | 
